# Data as given in article PMC2697320, “Identification of the high affinity binding site in the Streptococcus intermedius toxin intermedilysin for its membrane receptor, the human complement regulator CD59” (Molecular Immunology, 2009).
# B1: ILY peptide (peptide containing ILY residues 461-469 with flanking residues and an added C-terminal cysteine) (peptide)
# chain: AWEPWRLIYSKNDLPLVPC
# Biological target: T1, Recombinant soluble CD59 comprising amino acids 1-76 with an 11 amino acid Ser/Gly linker and termin (human, terminal Cys reduced with TCEP and thiol-coupled to the PDEA-modified CM5 chip)
# T1 construct: also called recombinant CD59; immobilised CD59
# Assay: SPR
# Details: both partners purified
binder,measurement,value
B1,Kd,4.92 µM
